According to PMC6499326 (Genes & Development, 2019):
Blank lines part the entries; values can stand above or below the binder they belong to.

Legend:
His-NRDE2^111–1164 = biological target: T1, His-NRDE2^111–1164 (human, UniProt Q9H7Z3 111-1164); experiment: pull-down
T1 sequence: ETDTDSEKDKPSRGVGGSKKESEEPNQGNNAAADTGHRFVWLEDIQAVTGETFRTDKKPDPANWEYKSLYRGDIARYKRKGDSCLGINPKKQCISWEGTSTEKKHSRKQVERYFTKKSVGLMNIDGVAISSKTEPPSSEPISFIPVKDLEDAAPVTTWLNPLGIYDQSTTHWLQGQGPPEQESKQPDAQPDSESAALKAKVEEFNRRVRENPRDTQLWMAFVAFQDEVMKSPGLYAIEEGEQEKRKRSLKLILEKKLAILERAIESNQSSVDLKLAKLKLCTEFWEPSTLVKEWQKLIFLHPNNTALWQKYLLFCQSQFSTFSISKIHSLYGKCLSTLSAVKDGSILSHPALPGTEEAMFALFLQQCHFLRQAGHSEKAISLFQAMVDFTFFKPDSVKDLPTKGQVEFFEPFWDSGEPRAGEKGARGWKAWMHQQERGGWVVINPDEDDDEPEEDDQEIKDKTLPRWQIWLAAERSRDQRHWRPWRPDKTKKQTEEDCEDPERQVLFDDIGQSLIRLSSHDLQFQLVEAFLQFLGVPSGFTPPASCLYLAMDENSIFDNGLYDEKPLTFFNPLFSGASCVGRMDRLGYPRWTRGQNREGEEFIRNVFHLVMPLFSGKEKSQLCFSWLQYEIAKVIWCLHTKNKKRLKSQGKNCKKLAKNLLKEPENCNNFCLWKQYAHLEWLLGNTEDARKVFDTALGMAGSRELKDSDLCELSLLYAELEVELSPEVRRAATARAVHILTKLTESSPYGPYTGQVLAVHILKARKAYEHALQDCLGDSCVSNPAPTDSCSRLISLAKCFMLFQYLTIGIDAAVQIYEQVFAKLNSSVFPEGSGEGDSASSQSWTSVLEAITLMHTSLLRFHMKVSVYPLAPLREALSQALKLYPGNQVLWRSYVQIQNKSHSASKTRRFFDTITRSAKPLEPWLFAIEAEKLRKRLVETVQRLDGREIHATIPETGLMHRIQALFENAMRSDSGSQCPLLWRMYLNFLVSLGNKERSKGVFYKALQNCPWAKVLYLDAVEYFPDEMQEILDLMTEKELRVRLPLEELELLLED

His-MTR4^71–1042 = biological target: T2, His-MTR4^71–1042 (human, UniProt P42285 71-1042); experiment: SEC
T2 sequence: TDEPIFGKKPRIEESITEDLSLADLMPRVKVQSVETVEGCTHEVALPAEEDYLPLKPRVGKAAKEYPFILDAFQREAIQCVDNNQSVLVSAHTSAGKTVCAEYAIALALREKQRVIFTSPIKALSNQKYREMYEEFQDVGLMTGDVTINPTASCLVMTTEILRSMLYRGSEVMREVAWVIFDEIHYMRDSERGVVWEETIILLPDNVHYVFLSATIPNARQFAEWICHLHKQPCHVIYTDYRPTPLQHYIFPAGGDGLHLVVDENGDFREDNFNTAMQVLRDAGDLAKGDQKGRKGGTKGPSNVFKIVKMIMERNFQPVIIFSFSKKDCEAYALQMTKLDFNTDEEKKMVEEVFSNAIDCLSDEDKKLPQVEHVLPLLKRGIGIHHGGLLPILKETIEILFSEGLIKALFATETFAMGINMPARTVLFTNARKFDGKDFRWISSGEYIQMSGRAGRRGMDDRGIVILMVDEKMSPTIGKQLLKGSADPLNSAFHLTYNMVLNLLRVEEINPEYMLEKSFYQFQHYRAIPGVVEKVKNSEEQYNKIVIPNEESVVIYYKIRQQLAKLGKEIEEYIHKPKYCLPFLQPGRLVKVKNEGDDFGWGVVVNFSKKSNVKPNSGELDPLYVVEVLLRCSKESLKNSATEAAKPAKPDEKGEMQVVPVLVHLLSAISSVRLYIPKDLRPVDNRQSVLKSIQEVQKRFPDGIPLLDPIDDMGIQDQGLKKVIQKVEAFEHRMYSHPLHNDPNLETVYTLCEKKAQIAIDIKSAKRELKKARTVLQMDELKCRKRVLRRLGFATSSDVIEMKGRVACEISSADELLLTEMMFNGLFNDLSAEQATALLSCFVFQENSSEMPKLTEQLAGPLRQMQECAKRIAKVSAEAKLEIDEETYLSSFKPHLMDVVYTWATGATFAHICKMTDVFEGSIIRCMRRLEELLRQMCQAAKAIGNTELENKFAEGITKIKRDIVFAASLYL

MTR4;NRDE2 MID = biological target: T3, MTR4;NRDE2 MID (Homo sapiens;Homo sapiens, UniProt P42285;Q9H7Z3 71-1042;163-266, |); experiment: EMSA
T3 sequence 1: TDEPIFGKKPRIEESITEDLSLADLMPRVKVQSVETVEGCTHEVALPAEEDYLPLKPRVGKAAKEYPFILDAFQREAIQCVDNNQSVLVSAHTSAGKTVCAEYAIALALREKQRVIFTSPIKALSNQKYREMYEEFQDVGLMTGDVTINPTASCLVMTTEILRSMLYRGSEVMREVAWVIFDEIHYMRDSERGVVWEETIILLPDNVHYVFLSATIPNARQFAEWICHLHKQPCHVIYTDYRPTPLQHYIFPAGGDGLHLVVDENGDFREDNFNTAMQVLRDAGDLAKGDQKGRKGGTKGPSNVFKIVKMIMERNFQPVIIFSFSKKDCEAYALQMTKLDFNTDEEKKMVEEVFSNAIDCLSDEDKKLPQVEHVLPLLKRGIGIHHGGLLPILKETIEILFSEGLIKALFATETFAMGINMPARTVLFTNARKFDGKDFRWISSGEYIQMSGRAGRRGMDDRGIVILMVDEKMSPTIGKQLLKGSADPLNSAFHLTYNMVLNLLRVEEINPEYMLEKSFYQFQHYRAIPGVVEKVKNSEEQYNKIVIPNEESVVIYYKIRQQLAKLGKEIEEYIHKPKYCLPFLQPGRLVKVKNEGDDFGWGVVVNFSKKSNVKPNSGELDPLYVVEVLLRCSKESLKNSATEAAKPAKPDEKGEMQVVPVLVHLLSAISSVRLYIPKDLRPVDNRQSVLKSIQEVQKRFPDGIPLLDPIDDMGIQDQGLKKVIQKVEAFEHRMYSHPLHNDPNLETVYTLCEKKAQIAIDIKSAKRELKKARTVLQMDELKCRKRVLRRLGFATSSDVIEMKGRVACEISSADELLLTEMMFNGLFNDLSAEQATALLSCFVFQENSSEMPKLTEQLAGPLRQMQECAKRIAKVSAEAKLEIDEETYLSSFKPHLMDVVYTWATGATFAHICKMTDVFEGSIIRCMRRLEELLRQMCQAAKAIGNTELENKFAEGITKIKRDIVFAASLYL
T3 sequence 2: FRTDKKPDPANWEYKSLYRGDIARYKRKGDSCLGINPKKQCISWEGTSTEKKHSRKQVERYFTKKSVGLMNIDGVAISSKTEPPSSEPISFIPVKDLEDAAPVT

binding result (His-NRDE2^111–1164): binds
B1: MBP-MTR4^FL (natural protein)
chain: MADAFGDELFSVFEGDSTTAAGTKKDKEKDKGKWKGPPGSADKAGKRFDGKLQSESTNNGKNKRDVDFEGTDEPIFGKKPRIEESITEDLSLADLMPRVKVQSVETVEGCTHEVALPAEEDYLPLKPRVGKAAKEYPFILDAFQREAIQCVDNNQSVLVSAHTSAGKTVCAEYAIALALREKQRVIFTSPIKALSNQKYREMYEEFQDVGLMTGDVTINPTASCLVMTTEILRSMLYRGSEVMREVAWVIFDEIHYMRDSERGVVWEETIILLPDNVHYVFLSATIPNARQFAEWICHLHKQPCHVIYTDYRPTPLQHYIFPAGGDGLHLVVDENGDFREDNFNTAMQVLRDAGDLAKGDQKGRKGGTKGPSNVFKIVKMIMERNFQPVIIFSFSKKDCEAYALQMTKLDFNTDEEKKMVEEVFSNAIDCLSDEDKKLPQVEHVLPLLKRGIGIHHGGLLPILKETIEILFSEGLIKALFATETFAMGINMPARTVLFTNARKFDGKDFRWISSGEYIQMSGRAGRRGMDDRGIVILMVDEKMSPTIGKQLLKGSADPLNSAFHLTYNMVLNLLRVEEINPEYMLEKSFYQFQHYRAIPGVVEKVKNSEEQYNKIVIPNEESVVIYYKIRQQLAKLGKEIEEYIHKPKYCLPFLQPGRLVKVKNEGDDFGWGVVVNFSKKSNVKPNSGELDPLYVVEVLLRCSKESLKNSATEAAKPAKPDEKGEMQVVPVLVHLLSAISSVRLYIPKDLRPVDNRQSVLKSIQEVQKRFPDGIPLLDPIDDMGIQDQGLKKVIQKVEAFEHRMYSHPLHNDPNLETVYTLCEKKAQIAIDIKSAKRELKKARTVLQMDELKCRKRVLRRLGFATSSDVIEMKGRVACEISSADELLLTEMMFNGLFNDLSAEQATALLSCFVFQENSSEMPKLTEQLAGPLRQMQECAKRIAKVSAEAKLEIDEETYLSSFKPHLMDVVYTWATGATFAHICKMTDVFEGSIIRCMRRLEELLRQMCQAAKAIGNTELENKFAEGITKIKRDIVFAASLYL

stoichiometry N (His-MTR4^71–1042): 1
B2: untagged NRDE2^111–1164 (domain or fragment)
chain: ETDTDSEKDKPSRGVGGSKKESEEPNQGNNAAADTGHRFVWLEDIQAVTGETFRTDKKPDPANWEYKSLYRGDIARYKRKGDSCLGINPKKQCISWEGTSTEKKHSRKQVERYFTKKSVGLMNIDGVAISSKTEPPSSEPISFIPVKDLEDAAPVTTWLNPLGIYDQSTTHWLQGQGPPEQESKQPDAQPDSESAALKAKVEEFNRRVRENPRDTQLWMAFVAFQDEVMKSPGLYAIEEGEQEKRKRSLKLILEKKLAILERAIESNQSSVDLKLAKLKLCTEFWEPSTLVKEWQKLIFLHPNNTALWQKYLLFCQSQFSTFSISKIHSLYGKCLSTLSAVKDGSILSHPALPGTEEAMFALFLQQCHFLRQAGHSEKAISLFQAMVDFTFFKPDSVKDLPTKGQVEFFEPFWDSGEPRAGEKGARGWKAWMHQQERGGWVVINPDEDDDEPEEDDQEIKDKTLPRWQIWLAAERSRDQRHWRPWRPDKTKKQTEEDCEDPERQVLFDDIGQSLIRLSSHDLQFQLVEAFLQFLGVPSGFTPPASCLYLAMDENSIFDNGLYDEKPLTFFNPLFSGASCVGRMDRLGYPRWTRGQNREGEEFIRNVFHLVMPLFSGKEKSQLCFSWLQYEIAKVIWCLHTKNKKRLKSQGKNCKKLAKNLLKEPENCNNFCLWKQYAHLEWLLGNTEDARKVFDTALGMAGSRELKDSDLCELSLLYAELEVELSPEVRRAATARAVHILTKLTESSPYGPYTGQVLAVHILKARKAYEHALQDCLGDSCVSNPAPTDSCSRLISLAKCFMLFQYLTIGIDAAVQIYEQVFAKLNSSVFPEGSGEGDSASSQSWTSVLEAITLMHTSLLRFHMKVSVYPLAPLREALSQALKLYPGNQVLWRSYVQIQNKSHSASKTRRFFDTITRSAKPLEPWLFAIEAEKLRKRLVETVQRLDGREIHATIPETGLMHRIQALFENAMRSDSGSQCPLLWRMYLNFLVSLGNKERSKGVFYKALQNCPWAKVLYLDAVEYFPDEMQEILDLMTEKELRVRLPLEELELLLED

Binder: UGUCUGACUGAAGGACCAGGUGCUGUCUGA (ssRNA) [5' FAM RNA (EMSA)]
binding signal (MTR4;NRDE2 MID): ~8 fold higher affinity than MTR4 alone
